# Patent publication US20210205286A1
# Assays:
# [1] = target: USP7 (endogenous) (UniProt Q93009); experiment: APEX2-Gal9 proximity biotinylation, SILAC LC-MS/MS, LLOMe; first of three experiments
# [2] = target: USP7 (endogenous) (UniProt Q93009); experiment: APEX2-Gal9 proximity biotinylation, SILAC LC-MS/MS, LLOMe; second of three experiments
# [3] = target: USP7 (endogenous) (UniProt Q93009); experiment: APEX2-Gal9 proximity biotinylation, SILAC LC-MS/MS, LLOMe; third of three experiments
# [4] = target: USP7 (endogenous) (UniProt Q93009); experiment: APEX2-Gal9 proximity biotinylation, SILAC LC-MS/MS, GPN; first of three experiments
# [5] = target: USP7 (endogenous) (UniProt Q93009); experiment: APEX2-Gal9 proximity biotinylation, SILAC LC-MS/MS, GPN; third of three experiments
# [6] = target: USP7 (endogenous) (UniProt Q93009); experiment: APEX2-Gal9 proximity biotinylation, SILAC LC-MS/MS, GPN; second of three experiments
# Chain of USP7 (endogenous) (Q93009 whole entry): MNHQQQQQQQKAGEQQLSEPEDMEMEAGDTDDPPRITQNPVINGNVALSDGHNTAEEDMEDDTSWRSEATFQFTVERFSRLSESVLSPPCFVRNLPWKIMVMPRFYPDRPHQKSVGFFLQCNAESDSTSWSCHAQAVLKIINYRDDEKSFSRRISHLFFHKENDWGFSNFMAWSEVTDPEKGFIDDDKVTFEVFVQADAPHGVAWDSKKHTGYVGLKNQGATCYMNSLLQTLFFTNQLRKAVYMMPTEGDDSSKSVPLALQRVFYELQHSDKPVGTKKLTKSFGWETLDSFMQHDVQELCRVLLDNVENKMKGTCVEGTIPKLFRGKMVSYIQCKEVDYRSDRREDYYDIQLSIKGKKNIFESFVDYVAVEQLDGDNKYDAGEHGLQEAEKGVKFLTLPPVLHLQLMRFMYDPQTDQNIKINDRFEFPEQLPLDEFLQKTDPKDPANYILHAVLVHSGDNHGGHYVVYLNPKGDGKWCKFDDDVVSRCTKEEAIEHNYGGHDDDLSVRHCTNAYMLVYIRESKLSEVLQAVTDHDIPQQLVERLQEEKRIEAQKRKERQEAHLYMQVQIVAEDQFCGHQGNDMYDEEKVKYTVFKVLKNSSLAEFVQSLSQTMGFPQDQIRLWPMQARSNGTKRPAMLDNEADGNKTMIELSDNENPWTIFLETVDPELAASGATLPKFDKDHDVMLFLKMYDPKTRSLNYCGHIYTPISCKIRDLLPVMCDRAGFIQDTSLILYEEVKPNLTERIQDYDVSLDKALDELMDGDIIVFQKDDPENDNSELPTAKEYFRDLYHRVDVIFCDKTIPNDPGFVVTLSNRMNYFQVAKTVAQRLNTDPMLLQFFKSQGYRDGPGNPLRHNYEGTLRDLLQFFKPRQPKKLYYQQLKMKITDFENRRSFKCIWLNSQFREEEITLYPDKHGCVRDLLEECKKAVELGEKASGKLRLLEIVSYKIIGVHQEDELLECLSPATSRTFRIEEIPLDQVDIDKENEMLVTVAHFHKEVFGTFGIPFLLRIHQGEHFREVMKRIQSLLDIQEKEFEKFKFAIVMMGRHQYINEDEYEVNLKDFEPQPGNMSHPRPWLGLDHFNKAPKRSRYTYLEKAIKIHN
substance,measurement,setting,value
APEX2-myc-Gal9 (from UniProt O00182 1-323),peptide counts (peptide counts),[1],2
same,peptide counts (peptide counts),[2],3
same,peptide counts (peptide counts),[3],2
same,peptide counts (peptide counts),[4],3
same,peptide counts (peptide counts),[5],3
same,peptide counts (peptide counts),[6],4
